Results taken from patent US6602854B1, “Branched multimeric Apo A-I agonist compounds” (priority 1997, dated 2003).
Where no end group is shown, it is not given here. [ ]: non-standard residue; d: D form. Nal = non-natural residue; Aib = CC(C)(N)C(=O)O

Legend:
[1] = HDL cholesterol in rabbits after injection of phospholipid/peptide complexes; format: in vivo, Male New Zealand White rabbits
Experimental: Small discoidal particles consisting of phospholipid (DPPC) and peptide were prepared following the cholate dialysis method. The phospholipid was dissolved in chloroform and dried under a stream of nitrogen. The peptide was dissolved in buffer (saline) at a concentration of 1-2 mg/ml. The lipid film was redissolved in buffer containing cholate (43° C.) and the peptide solution was added at a 3:1 phospholipid/peptide weight ratio. The mixture was incubated overnight at 43° C. and then dialyzed at 43° C. (24 hr.), room temperature (24 hr.) and 4° C. (24 hr.), with three changes of buffer (large volumes) at temperature point. The complexes were filter sterilized (0.22 μm) for injection and storage at 4° C.
Male New Zealand White rabbits (2.5-3 kg) were injected intravenously with a dose of phospholipid/peptide complex (5 or 10 mg/kg bodyweight, expressed as peptide) in a single bolus injection not exceeding 10-15 ml. The animals were slightly sedated before the manipulations. Blood samples (collected on EDTA) were taken before and 5, 15, 30, 60, 240 and 1440 minutes after injection. The hematocrit (Hct) was determined for each sample. Samples were aliquoted and stored at −20° C. before analysis.
Plasma Lipids. The total plasma cholesterol, plasma triglycerides and plasma phospholipids were determined enzymatically using commercially available assays according to the manufacturer's protocols (Boehringer Mannheim, Mannheim, Germany and Biomerieux, 69280, Marcy-L'étoile, France).
Lipoprotein Profiles. The plasma lipoprotein profiles of the fractions obtained after the separation of the plasma into its lipoprotein fractions were determined by spinning in a sucrose density gradient. The fractions were collected and in each individual fraction the phospholipid and cholesterol content was measured enzymatically.

[2] = Circular dichroism: degree of helicity (free, SUVs, micelles, TFE); settings: for He (%) free: percent helicity of free, unbound peptide; for He (%) SUVs: percent helicity of peptide-SUV complexes; for He (%) TFE: percent helicity of peptide-TFE solution; for He (%) mics: percent helicity of peptide-micelle complexes
Experimental: Far UV circular dichroism spectra were recorded between 190 and 260 nm (in 0.5 nm or 0.2 nm increments) with a AVIV62DS spectrometer (AVIV Associates, Lakewood, N.J., USA) equipped with a thermoelectric cell holder and sample changer. The instrument was calibrated with (+)-10-camphoric acid. Between one and three scans were collected for each sample, using 10 cm, 5 cm, 1 cm and 0.1 cm path length quartz Suprasil cells, respectively, for peptide concentrations of 10^−7 M to 10^−4 M. The bandwidth was fixed at 1.5 nm and the scan speed to 1 s per wavelength step. The reported data are the mean of at least 2 or 3 independent measurements.
After background substraction, spectra were converted to molar ellipticity (θ) per residue in deg. […] dmol^−1. The peptide concentration was determined by amino acid analysis and also by absorption spectrometry on a Perkin Elmer Lambda 17 UV/Visible spectrophotometer when the peptide contained a chromophore (tryptophane, dansyl, naphtylalanine).
CD spectra were obtained with free, unbound peptide (5 μM in 5 mM phosphate buffer, pH 7.4); with peptide-SUV complexes (20:1 EPC:Chol., Ri=30 and Ri=50); with peptide-micelle complexes (1-myristoyl-2-hydroxy-sn-glycero-3-phosphatidyl choline, Ri=100); and with free, unbound peptide in the presence of 2,2,2-trifluoroethanol (TFE) (5 μM peptide, 90% vol TFE).
The SUVs were obtained by dispersing the lipids (10 mM, 20:1 EPC:Chol., Avanti Polar Lipids, Ala.) in phosphate buffer (5 mM, pH 7.4) with bubbling N2 for 5 min., followed by sonication (1.5 hr.) in a bath sonicator. The homogeneity of the preparation was checked by FPLC.
The micelles were obtained by dispersing the lipid (6 mM 1-myristoyl-2-hydroxy-sn-glycero-3-phosphatidyl choline, Avanti Polar Lipids, AL) in phosphate buffer (5 mM, pH 7.4) with bubbling N2 for 5 min., followed by vortexing.
To obtain the peptide-SUV complexes, SUVs were added to the peptide (5 μM in 5 mM phosphate buffer, pH 7.4) at a phospholipid-peptide molar ratio (Ri) of 30 or 50.
To obtain the peptide-micelle complexes, micelles were added to the peptide (5 μM in 5 mM phosphate buffer, pH 7.4) at a Ri of 100.
All spectra were recorded at 37° C. The stability of peptide 4 (SEQ ID NO:4) as a function of temperature (both free in buffer and in micelles) was determined by recording spectra at a series of different temperatures.
The degree of helicity of peptide 4 (SEQ ID NO:4) as a function of concentration was also determined.
The degree of helicity of the peptides in the various conditions was determined from the mean residue ellipticity at 222 nm (Chen et al., 1974, Biochemistry 13:3350-3359) or by comparing the CD spectra obtained to reference spectra available on databases (16 helical reference spectra from Provencher & Glockner, 1981, Biochemistry 20:33-37; denatured protein reference spectra from Venyaminov et al., 1993, Anal. Biochem. 214:17-24) using the CONTIN curve-fitting algorithm version 2DP, CD-1 pack (Aug. 1982) (Provencher, 1982, Comput. Phys. Commun. 27:213-227, 229-242). Acceptable fit was determined using the statistical analysis methodology provided by the CONTIN algorithm.

Substance	He (%) free [2]	He (%) SUVs [2]	He (%) TFE [2]	He (%) mics [2]	other results
PVLDLFRELLNELLEWLKQKLK [peptide 3]	70%	80%	95%	95%	Increase (%) in HDL cholesterol ([1]; 10 mg/kg as peptide/DPPC complexes, 15 min): 84%; Increase (%) in HDL cholesterol ([1]; 10 mg/kg as peptide/DPPC complexes, 30 min): 71%; Increase (%) in HDL cholesterol ([1]; 10 mg/kg as peptide/DPPC complexes, 60 min): 60%; Increase (%) in HDL cholesterol ([1]; 10 mg/kg as peptide/DPPC complexes, 240 min): 14.5%
220 (PVLDLFRELLEELQKKLK) [compound 220]	27%	54%	64%	64%	
91 (PVLDEFRELLNE[Aib]LEALKQKLK) [compound 91]	43%		100%	100%	
EWLKAFYEKVLEKLKELF* [peptide 238, reference compound]	49%	60%	58%	72%	
54 (PVLDLFRELLNEWLEALKQKLK) [compound 54]	76%	84%	78%	71%	
EWLKAFYEKVLEKLKELF [peptide 248, reference compound]	18%	13%		45%	
148 (PVLELFENLLERLGDALQKKLK) [compound 148]	10%	23%	80%	76%	
108 (PVLDLFRWLLNE[Aib]LEALKQKLK) [compound 108]	28%		54%	55%	
49 (PVLDLFRNLLEKLLEALEQKLK) [compound 49]	57%	52%	57%	65%	
105 (PAADAFREAANEAAEAAKQKAK) [compound 105]	29%	32%	65%	28%	
45 (PVLDEFREKLNE[Aib]LEALKQKLK) [compound 45]			86%	84%	
38 (PVLDLFRELLNE[Aib]LEAWKQKLK) [compound 38]	25%	21%	49%	49%	
PVLDLFKELLNELLEALKQKLK [peptide 7]	77%	85%	73%	89%	
162 (PVLELFENWLERLLDALQKKLK) [compound 162]	68%	81%		83%	
193 (Ac-PVLDLFRELLEELKQKLK-NH2) [compound 193]	34%	87%	87%	88%	
PVLDLFRELLNELLEZLKQKLK (PVLDLFRELLNELLE[Nal]LKQKLK; not fully specified) [peptide 1]	77%	81%	69%	85%	Increase (%) in HDL cholesterol ([1]; 5 mg/kg as peptide/DPPC complexes, 15 min): 24.3%; Increase (%) in HDL cholesterol ([1]; 5 mg/kg as peptide/DPPC complexes, 30 min): 95%; Increase (%) in HDL cholesterol ([1]; 5 mg/kg as peptide/DPPC complexes, 60 min): 40.7%; Increase (%) in HDL cholesterol ([1]; 5 mg/kg as peptide/DPPC complexes, 240 min): 29%
37 (PVLDLFREWLNELLEALKQKLK) [compound 37]	65%	76%	73%	75%	
99 (KLKQKLAELLENLLERFLDLVP) [compound 99]	72%	80%	80%	88%	
DWFKAFYDKVAEKFKEAF [peptide 243, reference compound]	10%	50%		64%	
197 (Ac-PLLDLFRELLEELKQKLK-NH2) [compound 197]	43%		69%	70%	
